Among the data in publication PMC8491169 (Experimental eye research, 2021) are Kd, koff and kon values, retold here.

In general, Kd refers to the concentration at which binding is half-saturated. A word on the koff: it is the first-order rate constant of dissociation. By kon is commonly meant the second-order rate constant of association.

This assay has as its target full-length recombinant human proteoglycan 4 (rhPRG4) (human, UniProt Q92954 25-1404). Briefly: SPR. A general note: Surface plasmon resonance follows binding to a sensor surface in real time, without labels.

B1: recombinant human matrix metalloproteinase 9 (rhMMP-9) (enzyme)
chain: APRQRQSTLVLFPGDLRTNLTDRQLAEEYLYRYGYTRVAEMRGESKSLGPALLLLQKQLSLPETGELDSATLKAMRTPRCGVPDLGRFQTFEGDLKWHHHNITYWIQNYSEDLPRAVIDDAFARAFALWSAVTPLTFTRVYSRDADIVIQFGVAEHGDGYPFDGKDGLLAHAFPPGPGIQGDAHFDDDELWSLGKGVVVPTRFGNADGAACHFPFIFEGRSYSACTTDGRSDGLPWCSTTANYDTDDRFGFCPSERLYTQDGNADGKPCQFPFIFQGQSYSACTTDGRSDGYRWCATTANYDRDKLFGFCPTRADSTVMGGNSAGELCVFPFTFLGKEYSTCTSEGRGDGRLWCATTSNFDSDKKWGFCPDQGYSLFLVAAHEFGHALGLDHSSVPEALMYPMYRFTEGPPLHKDDVNGIRHLYGPRPEPEPRPPTTTTPQPTAPPTVCPTGPPTVHPSERPTAGPTGPPSAGPTGPPTAGPSTATTVPLSPVDDACNVNIFDAIAEIGNQLYLFKDGKYWRFSEGRGSRPQGPFLIADKWPALPRKLDSVFEERLSKKLFFFSGRQVWVYTGASVLGPRRLDKLGLGADVAQVTGALRSGRGKMLLFSGRRLWRFDVKAQMVDPRSASEVDRMFPGVPLDTHDVFQYREKAYFCQDRFYWRVSSRSELNQVDQVGYVTYDILQCPED
For B1, the Kd is 42.1 nM, the off-rate (koff) amounted to 0.000937 s⁻¹ and the kon worked out at 22300 M⁻¹ s⁻¹.
